Measurements reported in paper PMC8519427.

Target: human α-SNAP with an Avitag and a C-terminal 6xHis tag (human) (UniProt P54920)
Test: BLI; Octet RED96, 25°C; 0.25 μM biotinylated α-SNAP loaded on streptavidin biosensor tips; analyte: purified Orai1 or Stim1 fragments at varying concentrations; PBS with 2 mg/ml BSA and 0.02% Tween-20; association 5 min, dissociation 10 min; double referencing; global fit to the 1:1 or 2:1 binding model

Chain of human α-SNAP with an Avitag and a C-terminal 6xHis tag (human) (P54920 whole entry, the tested form may be a part): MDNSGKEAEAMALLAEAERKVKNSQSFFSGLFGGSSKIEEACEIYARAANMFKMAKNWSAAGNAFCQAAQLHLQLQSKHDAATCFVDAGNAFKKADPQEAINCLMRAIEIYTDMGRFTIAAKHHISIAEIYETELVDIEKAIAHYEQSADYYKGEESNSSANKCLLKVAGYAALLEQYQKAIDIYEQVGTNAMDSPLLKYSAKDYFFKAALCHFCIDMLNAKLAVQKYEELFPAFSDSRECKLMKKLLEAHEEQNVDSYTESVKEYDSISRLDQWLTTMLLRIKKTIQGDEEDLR

Kd | koff | kon | KD1 (2:1 binding model, site 1) | KD2 (2:1 binding model, site 2) | koff1 (2:1 binding model, site 1) | koff2 (2:1 binding model, site 2) | kon1 (2:1 binding model, site 1) | kon2 (2:1 binding model, site 2) | Substance
763 nM | 0.000117 s⁻¹ | 154 M⁻¹ s⁻¹ |  |  |  |  |  |  | purified untagged Orai1 1–103 (from UniProt Q96D31 1-103) (domain or fragment)
369 nM | 0.000506 s⁻¹ | 1370 M⁻¹ s⁻¹ | 198 nM | 0.715 µM | 5.62e-05 s⁻¹ | 0.0279 s⁻¹ | 284 M⁻¹ s⁻¹ | 39000 M⁻¹ s⁻¹ | commercially synthesized Orai1 245–292 peptide (from UniProt Q96D31 245-292)
548 nM | 0.000595 s⁻¹ | 1080 M⁻¹ s⁻¹ | 314 nM | 202 µM | 0.000213 s⁻¹ | 0.0306 s⁻¹ | 678 M⁻¹ s⁻¹ | 152 M⁻¹ s⁻¹ | purified untagged Orai1 245–292 (from UniProt Q96D31 245-292) (domain or fragment)
